Laboratory results as given in paper PMC5777247, “Cohesin SA2 is a sequence-independent DNA-binding protein that recognizes DNA replication and repair intermediates”.
Values joined by “and” are separate entries in the source; they are usually repeats but may differ in a detail not shown here. Equal entries are not always repeated. Values belong to the molecule of their own block, whether it stands above or below them.

What was measured:
SA2 (STAG2), full length [1] = biological target: T1, SA2 (STAG2), full length (human, UniProt Q8N3U4 1-1231); experiment: AFM; details: Anisotropy: 20 mM Hepes pH 7.5, 0.1 mM MgCl2, 0.5 mM DTT, 100 mM KCl, 1 nM DNA, AFM: 20 mM Hepes pH 7.5, 100 mM KCl, 0.1 mM MgCl2, room temperature, 20 min
T1 sequence: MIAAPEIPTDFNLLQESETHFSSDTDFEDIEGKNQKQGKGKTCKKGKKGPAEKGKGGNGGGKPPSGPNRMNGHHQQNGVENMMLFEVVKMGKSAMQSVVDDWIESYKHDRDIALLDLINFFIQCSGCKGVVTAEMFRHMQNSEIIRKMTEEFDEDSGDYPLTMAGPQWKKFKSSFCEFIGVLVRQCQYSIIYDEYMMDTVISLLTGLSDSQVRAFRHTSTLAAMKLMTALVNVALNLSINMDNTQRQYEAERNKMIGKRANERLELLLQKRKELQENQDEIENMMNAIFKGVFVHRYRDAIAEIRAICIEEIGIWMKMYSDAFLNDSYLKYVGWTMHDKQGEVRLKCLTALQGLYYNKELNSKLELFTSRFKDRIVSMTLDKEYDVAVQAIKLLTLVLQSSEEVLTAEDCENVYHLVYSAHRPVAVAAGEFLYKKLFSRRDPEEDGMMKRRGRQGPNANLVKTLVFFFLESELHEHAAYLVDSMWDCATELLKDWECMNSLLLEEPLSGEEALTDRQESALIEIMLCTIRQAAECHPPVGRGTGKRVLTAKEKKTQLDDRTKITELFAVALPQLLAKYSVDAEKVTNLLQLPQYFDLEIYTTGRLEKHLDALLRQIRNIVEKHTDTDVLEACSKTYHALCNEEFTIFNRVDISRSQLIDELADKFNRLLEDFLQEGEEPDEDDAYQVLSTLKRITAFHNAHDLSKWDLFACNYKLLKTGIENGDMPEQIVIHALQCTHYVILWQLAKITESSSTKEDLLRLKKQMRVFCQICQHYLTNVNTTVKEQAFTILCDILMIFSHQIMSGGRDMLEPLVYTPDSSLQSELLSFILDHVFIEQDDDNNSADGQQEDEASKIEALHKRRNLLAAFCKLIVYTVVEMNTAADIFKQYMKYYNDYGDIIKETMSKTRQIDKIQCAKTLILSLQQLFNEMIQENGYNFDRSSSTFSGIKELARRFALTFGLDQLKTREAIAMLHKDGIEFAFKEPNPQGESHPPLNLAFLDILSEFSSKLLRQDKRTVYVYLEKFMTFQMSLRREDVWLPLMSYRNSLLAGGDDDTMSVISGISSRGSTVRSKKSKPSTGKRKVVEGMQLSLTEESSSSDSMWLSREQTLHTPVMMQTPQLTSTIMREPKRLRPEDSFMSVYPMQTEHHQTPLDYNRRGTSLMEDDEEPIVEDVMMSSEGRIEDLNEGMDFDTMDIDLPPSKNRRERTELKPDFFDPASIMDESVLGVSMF

[2] = biological target: His-tagged full-length SA2 (amino acids 1-1231, 141 kDa) (human) (UniProt Q8N3U4); experiment: single-molecule fluorescence imaging on DNA tightropes; QD-labeled His-SA2 on DNA tightropes (centromeric, telomeric, gapped) between silica beads, oblique angle TIRF, no buffer flow; encounters of SA2-QDs on DNA followed in kymographs
[3] = biological target: His-tagged full-length SA2 (amino acids 1-1231, 141 kDa) (human) (UniProt Q8N3U4); experiment: AFM volume analysis; SA2 incubated with linear DNA substrates in 20 mM Hepes (pH 7.5), 100 mM KCl, 0.1 mM MgCl2 at room temperature for 20 min, deposited on mica; number of SA2 molecules in DNA-bound complexes from the AFM volume calibration curve
SA2 (STAG2), full length [4] = biological target: T1, SA2 (STAG2), full length; experiment: fluorescence anisotropy; details: Anisotropy: 20 mM Hepes pH 7.5, 0.1 mM MgCl2, 0.5 mM DTT, 100 mM KCl, 1 nM DNA; AFM: 20 mM Hepes pH 7.5, 100 mM KCl, 0.1 mM MgCl2, room temperature, 20 min
SA2 1-1051 [5] = biological target: T2, SA2 1-1051 (human, UniProt Q8N3U4 1-1051); experiment: AFM; details: Anisotropy: 20 mM Hepes pH 7.5, 0.1 mM MgCl2, 0.5 mM DTT, 100 mM KCl, 1 nM DNA, AFM: 20 mM Hepes pH 7.5, 100 mM KCl, 0.1 mM MgCl2, room temperature, 20 min
T2 sequence: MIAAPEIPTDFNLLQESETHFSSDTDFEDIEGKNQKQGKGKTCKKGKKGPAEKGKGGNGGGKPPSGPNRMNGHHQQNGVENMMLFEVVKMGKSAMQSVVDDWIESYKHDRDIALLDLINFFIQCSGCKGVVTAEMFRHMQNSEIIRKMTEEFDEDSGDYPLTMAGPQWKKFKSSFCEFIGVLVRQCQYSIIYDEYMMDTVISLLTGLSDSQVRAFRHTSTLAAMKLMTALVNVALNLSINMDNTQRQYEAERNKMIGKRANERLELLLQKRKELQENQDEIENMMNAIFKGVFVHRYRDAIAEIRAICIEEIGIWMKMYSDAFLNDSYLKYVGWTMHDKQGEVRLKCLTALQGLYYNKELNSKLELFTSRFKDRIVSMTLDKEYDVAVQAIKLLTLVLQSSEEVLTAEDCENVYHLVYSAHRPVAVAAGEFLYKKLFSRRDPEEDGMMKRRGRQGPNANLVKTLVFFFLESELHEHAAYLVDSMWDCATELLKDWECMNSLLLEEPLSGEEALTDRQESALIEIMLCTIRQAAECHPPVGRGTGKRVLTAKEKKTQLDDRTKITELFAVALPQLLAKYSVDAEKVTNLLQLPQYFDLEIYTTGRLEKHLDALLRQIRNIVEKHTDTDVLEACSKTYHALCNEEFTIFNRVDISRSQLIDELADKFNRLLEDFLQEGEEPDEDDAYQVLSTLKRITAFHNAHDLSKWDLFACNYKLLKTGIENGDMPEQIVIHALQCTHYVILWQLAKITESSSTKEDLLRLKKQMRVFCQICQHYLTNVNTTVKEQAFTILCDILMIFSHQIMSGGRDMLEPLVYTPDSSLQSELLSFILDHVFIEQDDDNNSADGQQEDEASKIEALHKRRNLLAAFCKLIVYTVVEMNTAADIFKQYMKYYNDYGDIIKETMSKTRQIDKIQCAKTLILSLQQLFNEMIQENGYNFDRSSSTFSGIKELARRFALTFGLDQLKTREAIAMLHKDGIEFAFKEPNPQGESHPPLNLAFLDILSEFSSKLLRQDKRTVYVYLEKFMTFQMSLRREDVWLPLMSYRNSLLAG

SA2 1-1051 [6] = biological target: T2, SA2 1-1051; experiment: fluorescence anisotropy; Anisotropy: 20 mM Hepes pH 7.5, 0.1 mM MgCl2, 0.5 mM DTT, 100 mM KCl, 1 nM DNA; AFM: 20 mM Hepes pH 7.5, 100 mM KCl, 0.1 mM MgCl2, room temperature, 20 min; details: protein: recombinant; tags: 6xHis; label: Alexa 488; blunt
SA2 (STAG2), full length [7] = biological target: T1, SA2 (STAG2), full length; experiment: as above; details: protein: recombinant, tags: 6xHis
SA2 (STAG2), full length [8] = biological target: T1, SA2 (STAG2), full length; experiment: fluorescence anisotropy; uncertain: low saturation; Anisotropy: 20 mM Hepes pH 7.5, 0.1 mM MgCl2, 0.5 mM DTT, 100 mM KCl, 1 nM DNA; AFM: 20 mM Hepes pH 7.5, 100 mM KCl, 0.1 mM MgCl2, room temperature, 20 min; details: protein: recombinant; tags: 6xHis; label: 5' Alexa 488
[9] = DNA ends vs internal, no centromere preference

Molecule: Cen-end DNA
binding signal (SA2 (STAG2), full length [1]; [9]): 2600 KSP/KNSP

Molecule: Cen-mid DNA
binding signal (SA2 (STAG2), full length [1]; [9]): 2130 KSP/KNSP

percent of SA2-SA2 encounters on DNA that formed complexes [2]: 8%
stoichiometry N (SA2 molecules) [3]: 5 and 4
Molecule: His-tagged full-length SA2 (amino acids 1-1231, 141 kDa) (from UniProt Q8N3U4 1-1231) (natural protein)

Molecule: circular replication fork template
binding signal (SA2 (STAG2), full length [1]; 55.6% of bound SA2 at fork junction): 26 % DNA bound

Molecule: ds66 telomeric
Kd (SA2 (STAG2), full length [4]): 88 nM

Molecule: linear flap DNA (AFM)
binding signal (SA2 (STAG2), full length [1]; flap vs internal): 4260 KSP/KNSP

Molecule: linear gapped DNA
binding signal (SA2 1-1051 [5]; DNA ends vs internal, substrate for end value inferred): 1690 KSP/KNSP
binding signal (SA2 1-1051 [5]; ssDNA gap vs internal): 1810 KSP/KNSP
binding signal (SA2 (STAG2), full length [1]; ssDNA gap vs internal): 1990 KSP/KNSP

Molecule: linear replication fork DNA (AFM)
binding signal (SA2 (STAG2), full length [1]; replication fork vs internal): 3150 KSP/KNSP

Molecule: linear single-stranded fork DNA (AFM)
binding signal (SA2 (STAG2), full length [1]; fork vs internal): 2950 KSP/KNSP

Molecule: replication fork (anisotropy)
Kd (SA2 (STAG2), full length [4]): 133 nM

B1: ds66 non-telomeric (Alexa ss66 + ss66-com) (dsDNA)
DNA 1: CTGGATCCGTACAGTGTAAGGGTGAGTGGTTGGGTGTGTGGGTGTTGATGTAGAACAAGAATTCGA
DNA 2: TCGAATTCTTGTTCTACATCAACACCCACACACCCAACCACTCACCCTTACACTGTACGGATCCAG
Kd (SA2 1-1051 [6]): 198 nM
Kd (SA2 (STAG2), full length [7]; label: Alexa 488, blunt): 76.2 ± 3.9 nM

Molecule: TGTCGCATAGTGTAGTCGGTCTTGTTCGGTCATAGCTCATCGTGG (ssDNA) [ss45 (oligo 1)]
Kd (SA2 (STAG2), full length [7]; label: 5' Alexa 488): 118 ± 5.3 nM

B2: ds45 (oligo 1 + oligo 2) (dsDNA)
DNA 1: TGTCGCATAGTGTAGTCGGTCTTGTTCGGTCATAGCTCATCGTGG
DNA 2: CCACGATGAGCTATGACCGAACAAGACCGACTACACTATGCGACA
Kd (SA2 (STAG2), full length [7]; label: 5' Alexa 488 on strand 1, blunt): 175 ± 12.9 nM

Molecule: TGTCGCATAGTGTAGTCGGTCTTGT (ssDNA) [ss25]
Kd (SA2 (STAG2), full length [8]): ~445 nM

Molecule: TGTCGCATAGTGTAG (ssDNA) [ss15]
Kd (SA2 (STAG2), full length [8]): ~1000 nM
